# B1: mtrC (mtrCDE) operator 27-mer, fluorescein (dsDNA)
# DNA 1: TTTTTATCCGTGCAATCGTGTATGTAT
# DNA 2: ATACATACACGATTGCACGGATAAAAA
# Tests used:
# MtrR [1] = biological target: T1, MtrR (Neisseria gonorrhoeae, UniProt P39897 1-210); assay: fluorescence polarization; 1 mM taurocholate; FP: 20 mM Tris-HCl pH 8.0, 100 mM NaCl, 2.5% glycerol, 1 nM DNA, temperature not stated; EMSA: 20 mM Tris pH 8.0, 200 mM NaCl, 10% glycerol, 1 mM TCEP, 1 ug poly(dI-dC), room temperature, 2% agarose TAE; settings: protein: recombinant; tags: His6 removed by thrombin; chain copies: 2
# MtrR [2] = biological target: T1, MtrR; assay: fluorescence polarization; no bile salt; FP: 20 mM Tris-HCl pH 8.0, 100 mM NaCl, 2.5% glycerol, 1 nM DNA, temperature not stated; EMSA: 20 mM Tris pH 8.0, 200 mM NaCl, 10% glycerol, 1 mM TCEP, 1 ug poly(dI-dC), room temperature, 2% agarose TAE; settings: protein: recombinant; tags: His6 removed by thrombin; chain copies: 2
# MtrR [3] = biological target: T1, MtrR; assay: fluorescence polarization; 1 mM glycocholate; FP: 20 mM Tris-HCl pH 8.0, 100 mM NaCl, 2.5% glycerol, 1 nM DNA, temperature not stated; EMSA: 20 mM Tris pH 8.0, 200 mM NaCl, 10% glycerol, 1 mM TCEP, 1 ug poly(dI-dC), room temperature, 2% agarose TAE; settings: protein: recombinant; tags: His6 removed by thrombin; chain copies: 2
# MtrR [4] = biological target: T1, MtrR; assay: fluorescence polarization; no CAPS; FP: 20 mM Tris-HCl pH 8.0, 100 mM NaCl, 2.5% glycerol, 1 nM DNA, temperature not stated; EMSA: 20 mM Tris pH 8.0, 200 mM NaCl, 10% glycerol, 1 mM TCEP, 1 ug poly(dI-dC), room temperature, 2% agarose TAE; settings: protein: recombinant; tags: His6 removed by thrombin; chain copies: 2
# MtrR(R176A) = MtrR(R176A) (Neisseria gonorrhoeae, UniProt P39897 1-210, R176A); assay: fluorescence polarization; no bile salt; nM Kd within 5-fold of WT (137, 184 or 187 nM, assignment unclear); FP: 20 mM Tris-HCl pH 8.0, 100 mM NaCl, 2.5% glycerol, 1 nM DNA, temperature not stated; EMSA: 20 mM Tris pH 8.0, 200 mM NaCl, 10% glycerol, 1 mM TCEP, 1 ug poly(dI-dC), room temperature, 2% agarose TAE; settings: protein: recombinant; tags: N-terminal His6 removed by TEV; chain copies: 2
# MtrR(R176E) = MtrR(R176E) (Neisseria gonorrhoeae, UniProt P39897 1-210, R176E); assay: as above; settings: protein: recombinant; tags: N-terminal His6 removed by TEV; chain copies: 2
# MtrR(W136L) = MtrR(W136L) (Neisseria gonorrhoeae, UniProt P39897 1-210, W136L); assay: as above; settings: protein: recombinant; tags: N-terminal His6 removed by TEV; chain copies: 2
binder,measurement,setting,value
B1,Kd,MtrR [1],20 ± 6 nM
same,Kd,MtrR [2],18 ± 3 nM
same,Kd,MtrR [3],21 ± 0.8 nM
same,Kd,MtrR [4],~3.6 nM
same,binding result,MtrR(R176A),binds
same,binding result,MtrR(R176E),binds
same,binding result,MtrR(W136L),binds
